Laboratory results as given in patent US20240043859A1, “HERBICIDE-RESISTANT PROTEIN, AND GENE AND USE THEREOF” (QINGDAO KINGAGROOT CHEMICAL COMPOUND CO., LTD., priority 2020, published 2024).
“Also recorded” adds a separate entry of the source.

Experiments:
[1] = test system: Arabidopsis thaliana; assay: Herbicide resistance of transgenic Arabidopsis thaliana seedlings on plate medium (root growth); assay type: in vivo; conditions: Arabidopsis overexpressing the gene
Procedure, shortened: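 T2 lines overexpressed AAD from the AtUbi10 promoter with the MAS terminator, with hygromycin selection; two events per construct were tested on plates against 2,4-D, 2,4-DB sodium and MCPA. The screening medium was MS plus 0.3 μM 2,4-D. Seeds were stratified 3 days at 4 °C, grown at 22 °C on 16 h light, and root elongation was compared with wild type after one week.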

[2] = test system: maize B104; assay: Herbicide-resistance capacity testing of transgenic maize (spray); assay type: in vivo; conditions: 2,4-D 4.48 kg/ha foliage spray, 14 days / 15 days after spraying
Description: 1. Vector construction: the overexpression vector was altered from pCambia3300, containing a Bar resistance gene that can be used as a selection marker for bialaphos (glufosinate). The AAD-like gene, QYD42, SEQ ID NO. 83, was linked to the pCambia3300 at the BamH I restriction site by seamless cloning to construct the transgenic vector pQY2329, of which the expression cassette consisted of a maize ubiquitin-1 promoter, the AAD gene and a Nos terminator, as shown in FIG. 7-1.
2. Genetic transformation of maizes: Maize transformation was carried out by the Agrobacterium-mediated immature embryo transformation method (Jones T, Lowe K, Hoerster G, et al. Maize Transformation Using the Morphogenic Genes Baby Boom and Wuschel2. Methods Mol Biol. 2019; 1864:81-93. Doi: 10.1007/978-1-4939-8778-8 6). The Agrobacterium (EHA105) comprising the pQY2329 overexpression vector was inoculated into YEP liquid medium (containing 25 mg/L Rifampicin and 50 mg/L Kanamycin), and shaking-cultured a t 28° C., 220 rmp/min overnight until the OD600 was about 1.0-1.5, then centrifuged at 6000 rmp/min for 10 min to collect the cells into a 50 ml centrifuge tube (sterilized). After discarding the supernatant, the cells were resuspended using MS infect culture medium (containing 68.5 g/L sucrose, 36 g/L glucose, pH 5.8) to OD550=0.8. […]

B1: QYD42: AAD-like enzyme, SEQ ID NO. 83; expressed from vectors pQY2309 (Arabidopsis), pQY2329 (maize), pQY2330 (soybean) (protein)
chain: MQITPIADATFGATVTGLRLATLDDAGFARLHAAWLQHALLVFPGQFLTNAEQIGFAKRFGPIERIGGGDIVAISNVKADGTVRQHSPAEWDDMMKVIVGNMAWHADSTYMPVMAQGAVFSAEVVPPTGGRTCFADMRAAYDALDDATRALVHQRSARHSLVYSQSKLGHVQQAGSAYVGYGMDTTATPLRPLVKRHPETGRLSLLIGRHAHAIPGLEEAESERFLEDLVAWACQPPRVVAHHWTAGDVVLWDNRCLLHRAEPWDFTLPRVMWHSRLAGHPETEAAPLV
modifications: Synthetic polypeptide, QYD42, D42
In the case of B1, the “Resistance of transgenic Arabidopsis thaliana: 2,4-D” value [1] is reported as “Yes”, the “Resistance of transgenic Arabidopsis thaliana: MCPA” value [1] is reported as “Yes” and the “Resistance of T1 transgenic maize to 2,4-D (spray)” value [2] is reported as “grew normally without any growth inhibition; also recorded: no apparent deformity”.
